Data reported in article PMC10941548, “Tau induces inflammasome activation and microgliosis through acetylating NLRP3” (Clinical and Translational Medicine, 2024).
One block for each binder: values may come before it.

How the values were obtained:
[1] = target: T1, purified human WT full-length Tau protein (Tau441), His-tagged (human, UniProt P10636-8 1-441); experiment: co-IP; competition: TNB peptide (0, 25, 50, 100, 200 µM) and purified Tau441 added to LPS-pretreated BV-2 cells; loss of Tau in the anti-NLRP3 immunoprecipitate; details: both partners purified
T1 construct: also called purified Tau441 protein; recombinant Tau441; source: E. coli ROSETTA 2(DE3)PLYSS, purified (Ni-NTA) by HUABIO

[2] = target: T1, purified human WT full-length Tau …; experiment: pull-down; Flag-NLRP3 (WT or mutant) immunoprecipitated from HEK-293T with anti-Flag on protein A/G agarose beads; incubated with 50 nM purified Tau441 and 1 mM acetyl CoA at 37°C for 2 h in 50 mM HEPES pH 8.0, 10 mM sodium butyrate, 1 mM DTT, 10% glycerol; blot with anti-Tau5 and anti-NLRP3; details: both partners purified

T1 sequence (P10636 other isoform, or with tags, fused parts or gaps): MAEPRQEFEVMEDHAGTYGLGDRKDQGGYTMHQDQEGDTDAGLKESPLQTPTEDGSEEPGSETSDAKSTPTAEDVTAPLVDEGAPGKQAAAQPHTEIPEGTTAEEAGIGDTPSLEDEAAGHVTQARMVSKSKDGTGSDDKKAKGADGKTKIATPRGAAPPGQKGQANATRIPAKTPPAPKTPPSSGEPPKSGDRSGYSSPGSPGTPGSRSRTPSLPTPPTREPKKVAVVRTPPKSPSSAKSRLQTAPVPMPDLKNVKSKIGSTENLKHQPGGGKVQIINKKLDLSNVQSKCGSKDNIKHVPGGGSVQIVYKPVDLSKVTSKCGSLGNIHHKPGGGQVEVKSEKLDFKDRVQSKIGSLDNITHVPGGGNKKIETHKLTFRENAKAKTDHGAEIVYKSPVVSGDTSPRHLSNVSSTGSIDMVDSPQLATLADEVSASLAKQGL

binding result [1]: binds
B1: Tau–NLRP3-binding blocking (TNB) peptide (peptide)
peptide: LEDLEDVDLKKFKMHLEDYPP
notes: stretch of NLRP3 around K21/K22/K24 in the PYD domain; 2574.89 Da; An FITC-labelled form (FITC-TNB) was used only for microscopy; also called peptide TNB; source: synthetic peptide (Bioyeargene Biosciences, Fmoc solid-phase, purity 95.93%)

binding result [2]: binds
B2: Flag-mouse NLRP3 (GV362-EGFP-FLAG-mouse NLRP3), wild type (natural protein, UniProt Q8R4B8 1-1033, looked up)
chain: MTSVRCKLAQYLEDLEDVDLKKFKMHLEDYPPEKGCIPVPRGQMEKADHLDLATLMIDFNGEEKAWAMAVWIFAAINRRDLWEKAKKDQPEWNDTCTSHSSMVCQEDSLEEEWMGLLGYLSRISICKKKKDYCKMYRRHVRSRFYSIKDRNARLGESVDLNSRYTQLQLVKEHPSKQEREHELLTIGRTKMRDSPMSSLKLELLFEPEDGHSEPVHTVVFQGAAGIGKTILARKIMLDWALGKLFKDKFDYLFFIHCREVSLRTPRSLADLIVSCWPDPNPPVCKILRKPSRILFLMDGFDELQGAFDEHIGEVCTDWQKAVRGDILLSSLIRKKLLPKASLLITTRPVALEKLQHLLDHPRHVEILGFSEAKRKEYFFKYFSNELQAREAFRLIQENEVLFTMCFIPLVCWIVCTGLKQQMETGKSLAQTSKTTTAVYVFFLSSLLQSRGGIEEHLFSDYLQGLCSLAADGIWNQKILFEECDLRKHGLQKTDVSAFLRMNVFQKEVDCERFYSFSHMTFQEFFAAMYYLLEEEAEGETVRKGPGGCSDLLNRDVKVLLENYGKFEKGYLIFVVRFLFGLVNQERTSYLEKKLSCKISQQVRLELLKWIEVKAKAKKLQWQPSQLELFYCLYEMQEEDFVQSAMDHFPKIEINLSTRMDHVVSSFCIKNCHRVKTLSLGFFHNSPKEEEEERRGGRPLDQVQCVFPDTHVACSSRLVNCCLTSSFCRGLFSSLSTNRSLTELDLSDNTLGDPGMRVLCEALQHPGCNIQRLWLGRCGLSHQCCFDISSVLSSSQKLVELDLSDNALGDFGIRLLCVGLKHLLCNLQKLWLVSCCLTSACCQDLALVLSSNHSLTRLYIGENALGDSGVQVLCEKMKDPQCNLQKLGLVNSGLTSICCSALTSVLKTNQNFTHLYLRSNALGDTGLRLLCEGLLHPDCKLQMLELDNCSLTSHSCWNLSTILTHNHSLRKLNLGNNDLGDLCVVTLCEVLKQQGCLLQSLQLGEMYLNRETKRALEALQEEKPELTIVFEISW
notes: NOD-like receptor pyrin domain containing 3 (NLRP3), mouse, fusion with Flag; Plasmid from Genechem; also called GV362-EGFP-Flag-NLRP3; NLRP3-protein A/G agarose beads complexes; source: HEK-293T, transfected 48 h, immunoprecipitated with anti-Flag antibody on protein A/G agarose beads
